Assay results taken from patent US10591466B2, “In vitro blood-brain barrier model” (priority 2014, dated 2020).
“And” between values parts separate entries of the source, which are not always exact repeats. Identical values can stand only once. “Also recorded” adds a separate entry of the source. Like-named read-outs stand apart in the source and are kept apart here.

B1: VHH A12: alpaca VHH with the sequence of SEQ ID NO:3, selected from an immune library; does not recognize any human brain protein (protein)
VHH: EVQLQASGGGLAQPGGSLRLSVTVSGSIDVINNMAWYRQAPGNARELVATITSGFSTNYASSVKGRFTISRDNAKKAVYLQMNSLKPEDTADYYSKVHLIRLGAARAYDYWGQGTQVTVS

Tests used:
[1] = Isoelectric point (pI) of VHH / VHH-comprising polypeptide; assay type: physicochemical
[2] = tested on: human brain extract (Sg tau 4697); experiment: Western blotting of VHH on human brain extract; assay type: binding; details: VHH 1 μg/ml
Method: (§1) The specificity of the VHH of the invention (A12) as compared to a control VHH recognizing brain proteins (H8/E9, identical to VHH E9, Perruchini et al.) was determined by western blotting on 3 different antigens: a human brain extract (Sg tau 4697), a mouse brain extract (Tg 4510) and on a purified protein, GFAP, a specific marker of astrocytes. […] Furthermore, VHH immunohistochemistry was performed from Tg4510 mouse tissues (Grueninger et al, 2010) harbouring NFTs. […] For western blotting, first we performed a polyacrylamide gel electrophoresis at 200 V for 45 min. Then we transferred proteins from gel to nitrocellulose membrane during 1H at 30 V. We saturated nitrocellulose membrane with PBS milk 2% for 1H under stirring. The membrane was then incubated for 1H with selected VHH diluted at 1 μg/ml in PBS milk 2%, and washed 3 times 5 min with PBS Tween. A secondary mouse mAb C23-21 recognizing Strep-tag (DI 2012-32 High-affinity monoclonal anti-Strep-Tag antibody C23.21; Girard-blanc C., Krey T., Vasiliauskaite ieva, Nato F., Lafaye P., Dartevelle S., Rey F.) was added at 1:2500 and incubated 1H at 37° C. Then after additional washes, an anti-mouse mAb labelled with peroxidase was added for 1 H. Three washes of 5 min in PBS Tween were performed.

[3] = tested on: mouse brain extract (Tg 4510); experiment: Western blotting of VHH on mouse brain extract; assay type: binding; details: VHH 1 μg/ml
Method: as §1

[4] = target: GFAP (glial fibrillary astrocytic protein) (Homo sapiens, UniProt P14136); experiment: Western blotting of VHH on purified GFAP; assay type: binding; details: VHH 1 μg/ml
GFAP (glial fibrillary astrocytic protein), sequence (P14136 whole entry, species assumed): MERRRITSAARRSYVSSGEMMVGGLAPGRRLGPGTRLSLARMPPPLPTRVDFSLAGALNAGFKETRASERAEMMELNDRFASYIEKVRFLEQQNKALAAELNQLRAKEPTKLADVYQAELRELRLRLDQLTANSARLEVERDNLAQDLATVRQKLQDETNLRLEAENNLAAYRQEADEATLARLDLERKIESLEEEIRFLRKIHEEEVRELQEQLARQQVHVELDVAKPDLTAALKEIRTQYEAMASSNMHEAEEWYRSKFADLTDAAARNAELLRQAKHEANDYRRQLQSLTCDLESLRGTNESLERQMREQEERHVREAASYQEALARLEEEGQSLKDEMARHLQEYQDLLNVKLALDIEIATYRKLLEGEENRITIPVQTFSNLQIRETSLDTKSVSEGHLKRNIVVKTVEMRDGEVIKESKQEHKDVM
Method: as §1

[5] = tested on: Tg 4510 mouse brain tissue; experiment: Immunohistochemistry on Tg 4510 mouse brain sections; assay type: binding; details: Tg 4510 paraffin-embedded mouse brain sections
Method: as §1

Molecule	isoelectric point (pI) [1]	isoelectric point (pI) ([1]; listed as SEQ ID NO:3)	reactivity by western blotting against human brain extract [2]	reactivity by western blotting against human brain extract ([2]; listed as VHH A2)	reactivity by western blotting against mouse brain extract [3]	reactivity by western blotting against mouse brain extract ([3]; listed as VHH A2)	reactivity by western blotting against GFAP [4]	reactivity by western blotting against GFAP ([4]; listed as VHH A2)	immunoreactivity / labelling by immunohistochemistry [5]
RRVNRSEPTQHNLRGTGREVSVTPQSGKIISSWEVHGQQTRL [Neurovita 3]	basic	–	–	–	–	–	–	–	–
B1	9.78 and > 8.5 and 9.86	> 9	does not recognize any human brain protein; also recorded: no reactivity; also recorded: not to recognize any brain protein	no bands were detected	no reactivity; also recorded: not to recognize any brain protein	no bands were detected	no reactivity; also recorded: not to recognize any brain protein	no bands were detected	no immunoreactivity; also recorded: no labelling was observed; also recorded: not to recognize any brain protein
